Results taken from PMC5748984 (The Journal of Cell Biology, 2018).

T1: Trs120-TAP (budding yeast, UniProt Q04183 1-1289)
T1 sequence: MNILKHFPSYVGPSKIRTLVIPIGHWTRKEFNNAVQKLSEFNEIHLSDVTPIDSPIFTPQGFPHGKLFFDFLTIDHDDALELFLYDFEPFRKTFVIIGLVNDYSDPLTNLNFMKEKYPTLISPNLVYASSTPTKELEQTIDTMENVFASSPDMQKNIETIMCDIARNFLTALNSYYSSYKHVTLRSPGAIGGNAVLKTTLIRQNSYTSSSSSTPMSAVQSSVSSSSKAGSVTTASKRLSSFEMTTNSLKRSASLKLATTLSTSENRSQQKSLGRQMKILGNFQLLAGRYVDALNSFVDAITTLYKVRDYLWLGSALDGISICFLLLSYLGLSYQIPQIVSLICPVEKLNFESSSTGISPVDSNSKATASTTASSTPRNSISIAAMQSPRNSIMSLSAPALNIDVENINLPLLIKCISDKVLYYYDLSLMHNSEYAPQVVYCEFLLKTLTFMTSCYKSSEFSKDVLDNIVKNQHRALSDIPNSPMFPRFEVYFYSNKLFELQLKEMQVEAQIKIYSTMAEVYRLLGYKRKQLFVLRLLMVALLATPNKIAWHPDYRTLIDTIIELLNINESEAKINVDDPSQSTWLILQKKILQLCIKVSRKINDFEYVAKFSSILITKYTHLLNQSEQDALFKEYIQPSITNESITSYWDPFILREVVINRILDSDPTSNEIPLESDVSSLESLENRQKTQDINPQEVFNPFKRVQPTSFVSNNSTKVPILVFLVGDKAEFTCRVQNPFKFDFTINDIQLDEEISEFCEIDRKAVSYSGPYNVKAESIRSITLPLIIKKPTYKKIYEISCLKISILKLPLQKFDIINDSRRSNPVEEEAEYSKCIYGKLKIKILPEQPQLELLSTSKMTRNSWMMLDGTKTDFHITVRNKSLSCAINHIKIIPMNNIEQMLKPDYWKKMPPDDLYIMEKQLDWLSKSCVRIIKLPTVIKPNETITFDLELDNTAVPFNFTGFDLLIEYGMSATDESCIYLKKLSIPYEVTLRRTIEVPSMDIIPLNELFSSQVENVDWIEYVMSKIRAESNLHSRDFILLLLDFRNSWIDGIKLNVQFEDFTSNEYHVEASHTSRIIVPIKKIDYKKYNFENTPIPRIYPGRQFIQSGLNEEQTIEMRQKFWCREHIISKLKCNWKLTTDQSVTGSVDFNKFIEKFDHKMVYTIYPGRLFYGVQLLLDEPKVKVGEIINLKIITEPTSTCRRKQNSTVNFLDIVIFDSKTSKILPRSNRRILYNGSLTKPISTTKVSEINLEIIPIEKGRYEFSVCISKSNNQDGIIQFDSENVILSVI

T2: Trs85-TAP (from yeast) (budding yeast, UniProt P46944 1-698)
T2 sequence: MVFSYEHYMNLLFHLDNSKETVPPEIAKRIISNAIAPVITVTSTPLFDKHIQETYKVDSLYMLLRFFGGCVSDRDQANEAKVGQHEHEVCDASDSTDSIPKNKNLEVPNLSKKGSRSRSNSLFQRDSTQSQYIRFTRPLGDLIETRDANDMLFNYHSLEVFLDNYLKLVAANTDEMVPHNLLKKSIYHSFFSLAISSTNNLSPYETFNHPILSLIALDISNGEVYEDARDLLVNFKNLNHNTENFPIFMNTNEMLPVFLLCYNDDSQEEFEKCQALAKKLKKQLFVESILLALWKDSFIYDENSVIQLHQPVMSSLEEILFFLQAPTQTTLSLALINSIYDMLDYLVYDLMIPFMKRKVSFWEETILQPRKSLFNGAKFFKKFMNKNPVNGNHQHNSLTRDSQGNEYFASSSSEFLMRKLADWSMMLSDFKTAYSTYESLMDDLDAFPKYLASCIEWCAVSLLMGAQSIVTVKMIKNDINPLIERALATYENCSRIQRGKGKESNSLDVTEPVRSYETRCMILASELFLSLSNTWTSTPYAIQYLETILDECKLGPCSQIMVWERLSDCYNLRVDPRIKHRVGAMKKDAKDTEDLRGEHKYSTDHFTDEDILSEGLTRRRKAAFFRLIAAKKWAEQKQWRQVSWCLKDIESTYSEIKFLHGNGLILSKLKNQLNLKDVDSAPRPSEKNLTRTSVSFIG

T3: Gdi1 (UniProt P39958 1-451)
T3 sequence: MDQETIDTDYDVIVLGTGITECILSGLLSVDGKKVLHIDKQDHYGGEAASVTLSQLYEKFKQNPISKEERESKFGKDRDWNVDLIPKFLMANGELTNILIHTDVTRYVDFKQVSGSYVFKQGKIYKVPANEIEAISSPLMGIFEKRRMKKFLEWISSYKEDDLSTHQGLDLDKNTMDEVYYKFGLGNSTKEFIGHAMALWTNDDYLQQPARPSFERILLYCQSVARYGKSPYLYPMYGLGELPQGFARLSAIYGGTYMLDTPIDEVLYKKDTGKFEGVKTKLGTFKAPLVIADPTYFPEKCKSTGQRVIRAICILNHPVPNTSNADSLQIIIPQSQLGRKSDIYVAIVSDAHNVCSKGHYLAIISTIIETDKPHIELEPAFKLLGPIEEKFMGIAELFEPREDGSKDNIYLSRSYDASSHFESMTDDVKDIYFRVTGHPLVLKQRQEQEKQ

B1: Bet3 (endogenous, yeast) (natural protein)
chain: MVSTTQSRSLKAMGEEIWKNKTEKINTELFTLTYGSIVAQLCQDYERDFNKVNDHLYSMGYNIGCRLIEDFLARTALPRCENLVKTSEVLSKCAFKIFLNITPNITNWSHNKDTFSLILDENPLADFVELPMDAMKSLWYSNILCGVLKGSLEMVQLDCDVWFVSDILRGDSQTEIKVKLNRILKDEIPIGED
B2: prenylated Ypt1 (natural protein)
chain: not shown
modifications: prenylated with geranylgeranyl pyrophosphate in vitro; loaded with mantGDP

Columns and labels:
[1] = molecular target: T1, Trs120-TAP; experiment: tandem affinity purification
[2] = molecular target: T2, Trs85-TAP (from yeast); experiment: tandem affinity purification
[3] = molecular target: T3, Gdi1; experiment: SEC

Binder | stoichiometry N [1] | stoichiometry N [2] | binding result [3]
B1 | 2 | 2 | 
B2 |  |  | binds
